Source: PMC11490885

Target: hβ3-ICL-del 1D4 (human GABAA receptor β3 subunit, intracellular loop deleted, homomeric receptor) (human)
Assay: native MS; purified β3-ICL-del receptor, buffer exchanged into 200 mM ammonium acetate pH 8, 0.08 mM DMNG; static nanospray, Q-Exactive EMR; unlabeled receptor seen as a single species; pentamer

## hβ3-ICL-del 1D4 (human GABAA receptor β3 subunit, intracellular loop deleted, homomeric receptor)
  stoichiometry N: 5
